Consider eight molecules from patent US20200239555A1 (STATEN BIOTECHNOLOGY B V, published 2020).

The koff is the first-order rate constant of dissociation. Usually kon stands for a measure of how fast the partners come together. The Kd is the free concentration of one partner at which half of the binding sites on the other are occupied at equilibrium, for simple one-to-one binding. A high value points to a looser complex.

For assay [1], the target named is T1, biotinylated native human ApoC3 (human, UniProt P02656 21-99, biotinylated (site not stated)).
T1 construct: also called biotinylated human ApoC3
Description: SPR, IgG1 over biotinylated ApoC3 on SA chip. The method, boiled down:
(§1)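 Biotinylated native human ApoC3 was captured on a streptavidin chip (~500 RU), and IgG1 at 1-50 nM was injected in HBS-EP at pH 7.4, or at pH 5.5 with 10 mM citrate added. Dissociation was followed for 5 min. Double-referenced sensorgrams were fit to a 1:1 Langmuir model, and fits were considered not applicable when kd was below 1×10⁻⁶ 1/s.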
(In general: SPR reads the build-up and loss of mass on a sensor chip optically.)

The target in assay [2] is T1, biotinylated native human ApoC3. Description: SPR, IgG1 over biotinylated ApoC3 on SA chip, pH 5.5. The gist of the method:
as §1

For assay [3] the target is unchanged. As to the kind of experiment: SPR, IgG1 over biotinylated ApoC3 on SA chip, pH 7.4. The gist of the method:
as §1

Assay [4] concerns the target T2, native human ApoC3 (human, UniProt P02656 21-99).
T2 construct: also called nhuApoC3; native huApoC3
As to the kind of experiment: SPR, ApoC3 over captured IgG1, pH 7.4; pH 7.4; ApoC3 600-50 nM over immobilized antibody. The protocol:
An inverted SPR assay was designed in which a test antibody was captured on an SPR chip, human ApoC3 protein was injected, and binding of ApoC3 to the antibody was measured. […] The immobilization was performed in accordance with the method provided by Biacore/GE using the NHS/EDC kit (Biacore AB, Cat.nr. BR-1000-50): after activation of the chip, a solution of 30 μg/ml of anti-human Fcγ antibody in 10 mM acetate buffer with pH of 5.0 was prepared and injected until the surface density reached approximately 10000 RU. The analytical cycle comprised the following steps:
The resulting sensorgrams were analyzed using the BIAevaluation 4.1 software using Langmuir 1:1 binding model to derive binding kinetics. Data was zero adjusted, the reference cell sensorgrams were subtracted and the no analyte blank assay was used for double referencing the sensorgrams corresponding to the analyte injections. The dissociation and association phase sensorgrams were fitted separately for the 4 different concentration curves. Sensorgrams were excluded from the fitting if maximum RU values reached were below the detection limit of the equipment (<5 RU), Biacore 3000 (Biacore AB).

Assay [5] has as its target T1, biotinylated native human ApoC3. As to the kind of experiment: SPR, scFv-Fc over biotinylated ApoC3 on SA chip.
For assay [6] the target is unchanged. Description: SPR, scFv-Fc over biotinylated ApoC3 on SA chip, pH 5.5.
The target is the same in assay [7]. Description: SPR, scFv-Fc over biotinylated ApoC3 on SA chip, pH 7.4.
Assay [8] concerns the target T2, native human ApoC3. Description: SPR, IgG1 over ApoC3 on CM5 chip, pH 5.5. The protocol: (§2) Based on the results in Example 1, test scFv-Fc antibodies were generated as human IgG₁ antibodies. An SPR-based assay was employed, in which human ApoC3 protein was immobilized on a CM5 chip, and the binding kinetics of test antibodies to the coated chip were measured at both pH 7.4 and pH 5.5. Briefly, a solution of 50 μg/ml of native human ApoC3 in 10 mM acetate buffer at pH 4.5 was prepared and injected until the surface density reached approximately 500 RU. 60 μl of each test antibody was diluted in HBS-EP buffer (GE, cat. nr. BR-1008-26; 0.010 M HEPES, 0.150M NaCl, 3 mM EDTA, 0.05% (v/v) surfactant P20, pH 7.4), and was injected at a concentration as described in Table 9. The test antibodies were passed through the flow cells at a flow rate of 30 μl/min, followed by an off-rate wash at pH 7.4 or pH 5.5 for 5 min. The resulting sensorgrams were analyzed using the BIAevaluation 4.1 software applying the Langmuir 1:1 binding model to derive binding kinetics. Data was zero adjusted and the reference cell sensorgrams were subtracted.

Assay [9] has as its target T2, native human ApoC3. As to the kind of experiment: SPR, IgG1 over ApoC3 on CM5 chip, pH 7.4. The protocol: as §2
Assay [10] addresses T1, biotinylated native human ApoC3. Description: SPR, IgG1 over biotinylated ApoC3 on SA chip, pH 5.5; pH 5.5.
For assay [11] the target is unchanged. As to the kind of experiment: SPR, IgG1 over biotinylated ApoC3 on SA chip, pH 7.4; pH 7.4; native ApoC3 on CM5 chip.
In assay [12] the target is T2, native human ApoC3. As to the kind of experiment: SPR, IgG1 over ApoC3 on CM5 chip, pH 7.4; pH 7.4; IgG1 over native ApoC3 on CM5 chip. The protocol: as §2

T2 sequence (P02656 21-99): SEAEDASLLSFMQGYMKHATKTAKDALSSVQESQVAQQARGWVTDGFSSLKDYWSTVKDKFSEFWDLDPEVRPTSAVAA
T1 sequence (P02656 21-99): as above

B1: mAb13 (antibody, IgG1, V domains shown)
VH: QLLESGGGLVQPGGSLRLSCAASGFTFSTYSMRWVRQVPGKGLEWVSSIHTEGGGTAYRDSVKGRFTISRDNSKNTLYLQMNSLRAEDTAVYYCVIAGYSDWGQGTLVTVSS
VL: DIVMTQSPLSLPVTPGEPASISCKTSQGLVHSDGKTYFYWYLQKPGQSPQLLIYQVSNRASGVPDRFSGSGSGTDFTLKISRVEAEDVGVYYCAHGTYYPHTFGQGTRLEIK
notes: Produced as full length IgG1 (kappa) in ExpiCHO-S cells; CDR graft into the closest human germline frameworks; also called humanized anti-ApoC3 antibody mAb13; variant 13
In the case of B1, the “KD pH5.5/KD pH7.4” value in [1] was 1.33. In assay [2], this molecule displayed a Ka of 1.8e+08 M⁻¹, a koff of 0.00267 s⁻¹ and a kon of 479000 M⁻¹ s⁻¹. Also, in [3], the Ka is 2.38e+08 M⁻¹, the dissociation rate constant (koff) is 0.000461 s⁻¹ and the kon was 110000 M⁻¹ s⁻¹. Further, in the assay with native human ApoC3 [4], the Ka came out at 998000 M⁻¹, the koff stood at 0.037 s⁻¹ and the kon stood at 37000 M⁻¹ s⁻¹.

B2: mAb14 (antibody, IgG1, V domains shown)
VH: QLLESGGGLVQPGGSLRLSCAASGFTFGTYSMRWVRQVPGKGLEWVSSIHTEGGGTAYRDSVKGRFTISRDNSKNTLYLQMNSLRAEDTAVYYCVIAGYSDWGQGTLVTVSS
VL: DIVMTQSPLSLPVTPGEPASISCKTSQGLVHSDGKTYFYWYLQKPGQSPQLLIYQVSNRASGVPDRFSGSGSGTDFTLKISRVEAEDVGVYYCAHGTYYPHTFGQGTRLEIK
notes: Produced as full length IgG1 (kappa) in ExpiCHO-S cells; CDR graft into the closest human germline frameworks; also called humanized anti-ApoC3 antibody mAb14; variant 14
In the case of B2, the “KD pH5.5/KD pH7.4” value in assay [1] was found to be 7.2. In [2], this molecule gave a Ka of 4.7e+07 M⁻¹, an off-rate (koff) of 0.00788 s⁻¹ and a kon of 370000 M⁻¹ s⁻¹. In assay [3], the Ka came to 3.38e+08 M⁻¹, the koff worked out at 0.000427 s⁻¹ and the kon came out at 144000 M⁻¹ s⁻¹. In addition, in the assay with native human ApoC3 [4], the Ka was found to be 567000 M⁻¹, the koff is 0.0458 s⁻¹ and the on-rate (kon) was 26000 M⁻¹ s⁻¹.

B3: 5E5WT scFv-Fc (scFv, part only; not given: Linker, domain order, Fc, V domains shown, not shown: another chain or arm of the molecule; a dimerising Fc or GST; small tags and cut ends)
VH: QLQLVESGGGLVQPGGSLRLSCAASGFTFGTYSMRWVRQVPRKALEWVSSISTDGGGTAYRDSVKGRFTISRDNAKNTLYLQMNNLKPEDTAIYYCVIAGYSDWGQGTQVTVSS
VL: ATMLTQSPGSLSVVPGESASISCKTSQGLVHSDGKTYFYWFLQKPGQSPQQLIYQVSNRASGVPDRFTGSGSGTDFTLKISGVKAEDAGVYYCAQGTYYPHTFGSGTRLEIK
In assay [5], B3 came in with a KD pH 5.5/KD pH 7.4 of 3. In assay [6], this molecule displayed a Kd of 60 pM, a koff of 2.53e-05 s⁻¹ and a kon of 393000 M⁻¹ s⁻¹. Also, in assay [7], the Kd was 20 pM, the koff was 1.75e-05 s⁻¹ and the kon worked out at 823000 M⁻¹ s⁻¹.

B4: 5E5WT human IgG1 (antibody, V domains shown)
VH: QLQLVESGGGLVQPGGSLRLSCAASGFTFGTYSMRWVRQVPRKALEWVSSISTDGGGTAYRDSVKGRFTISRDNAKNTLYLQMNNLKPEDTAIYYCVIAGYSDWGQGTQVTVSS
VL: ATMLTQSPGSLSVVPGESASISCKTSQGLVHSDGKTYFYWFLQKPGQSPQQLIYQVSNRASGVPDRFTGSGSGTDFTLKISGVKAEDAGVYYCAQGTYYPHTFGSGTRLEIK
In the case of B4, the koff was found to be 1.7e-05 s⁻¹ with native human ApoC3 [8], 1.79e-05 s⁻¹ with native human ApoC3 [9], 1.7e-05 s⁻¹ in [2] and 1.79e-05 s⁻¹ in [3]. The kon with native human ApoC3 [8] is 340000 M⁻¹ s⁻¹; with native human ApoC3 [9] it was 350000 M⁻¹ s⁻¹; in [2], 340000 M⁻¹ s⁻¹; in assay [11], 350000 M⁻¹ s⁻¹. Besides, in assay [1], the “KD pH5.5/KD pH7.4” value was 0.97. In addition, the Kd in [2] and in assay [3] was 50 pM each time. Besides, the Ka in assay [3] worked out at 1.95e+10 M⁻¹; in assay [10] it was 2.01e+10 M⁻¹.

B5: 5E5VH12_VLWT scFv-Fc (scFv, part only; not given: Linker, domain order, Fc, V domains shown, not shown: another chain or arm of the molecule; a dimerising Fc or GST; small tags and cut ends)
VH: QLQLVESGGGLVQPGGSLRLSCAASGFTFGTYSMRWVRQVPRKALEWVSSISTDGGGTAYRDSVKGRFTISRDNAKNTLYLQMNNLKPEDTAIYYCVIHGYSDWGQGTQVTVSS
VL: ATMLTQSPGSLSVVPGESASISCKTSQGLVHSDGKTYFYWFLQKPGQSPQQLIYQVSNRASGVPDRFTGSGSGTDFTLKISGVKAEDAGVYYCAQGTYYPHTFGSGTRLEIK
In assay [5], B5 yielded a KD pH 5.5/KD pH 7.4 of 31.4. In assay [6], this molecule gave a Kd of 16000 pM, a koff of 0.00206 s⁻¹ and a kon of 129000 M⁻¹ s⁻¹. Further, in [7], the Kd amounted to 510 pM, the koff is 0.000157 s⁻¹ and the kon worked out at 308000 M⁻¹ s⁻¹.

B6: 5E5VHWT_VL8 scFv-Fc (scFv, part only; not given: Linker, domain order, Fc, V domains shown, not shown: another chain or arm of the molecule; a dimerising Fc or GST; small tags and cut ends)
VH: QLQLVESGGGLVQPGGSLRLSCAASGFTFGTYSMRWVRQVPRKALEWVSSISTDGGGTAYRDSVKGRFTISRDNAKNTLYLQMNNLKPEDTAIYYCVIAGYSDWGQGTQVTVSS
VL: ATMLTQSPGSLSVVPGESASISCKTSQGLVHSDGKTYFYWFLQKPGQSPQQLIYQVSNRASGVPDRFTGSGSGTDFTLKISGVKAEDAGVYYCAHGTYYPHTFGSGTRLEIK
In turn, B6 yielded a KD pH 5.5/KD pH 7.4 in assay [5] of 7.4. In addition, in [6], the koff worked out at 0.00116 s⁻¹ and the kon turned out to be 269000 M⁻¹ s⁻¹. In addition, in assay [7], the Kd stood at 580 pM, the koff came to 0.000221 s⁻¹ and the kon amounted to 381000 M⁻¹ s⁻¹.

B7: 5E5VH5_VLWT scFv-Fc (scFv, part only; not given: Linker, domain order, Fc, V domains shown, not shown: another chain or arm of the molecule; a dimerising Fc or GST; small tags and cut ends)
VH: QLQLVESGGGLVQPGGSLRLSCAASGFTFGTYSMRWVRQVPRKALEWVSSIHTDGGGTAYRDSVKGRFTISRDNAKNTLYLQMNNLKPEDTAIYYCVIAGYSDWGQGTQVTVSS
VL: ATMLTQSPGSLSVVPGESASISCKTSQGLVHSDGKTYFYWFLQKPGQSPQQLIYQVSNRASGVPDRFTGSGSGTDFTLKISGVKAEDAGVYYCAQGTYYPHTFGSGTRLEIK
B7 gave a KD pH 5.5/KD pH 7.4 in assay [5] of 18.5. In [6], this molecule displayed a koff of 0.0016 s⁻¹ and a kon of 147000 M⁻¹ s⁻¹. In assay [7], this molecule came in with a Kd of 590 pM, a dissociation rate constant (koff) of 0.000105 s⁻¹ and a kon of 178000 M⁻¹ s⁻¹.

B8: 5E5VH5VH12_VL8 human IgG1 (antibody, V domains shown)
VH: QLQLVESGGGLVQPGGSLRLSCAASGFTFGTYSMRWVRQVPRKALEWVSSIHTDGGGTAYRDSVKGRFTISRDNAKNTLYLQMNNLKPEDTAIYYCVIHGYSDWGQGTQVTVSS
VL: ATMLTQSPGSLSVVPGESASISCKTSQGLVHSDGKTYFYWFLQKPGQSPQQLIYQVSNRASGVPDRFTGSGSGTDFTLKISGVKAEDAGVYYCAHGTYYPHTFGSGTRLEIK
In the assay with native human ApoC3 [12], B8 returned a dissociation rate constant (koff) of 0.0028 s⁻¹ and a kon of 125000 M⁻¹ s⁻¹.
